The labels stand for the following.
T1: cynomolgus monkey FAPα on Expi293F cells (cynomolgus monkey (Macaca fascicularis), UniProt Q12884 1-760 (human entry))
T1 sequence: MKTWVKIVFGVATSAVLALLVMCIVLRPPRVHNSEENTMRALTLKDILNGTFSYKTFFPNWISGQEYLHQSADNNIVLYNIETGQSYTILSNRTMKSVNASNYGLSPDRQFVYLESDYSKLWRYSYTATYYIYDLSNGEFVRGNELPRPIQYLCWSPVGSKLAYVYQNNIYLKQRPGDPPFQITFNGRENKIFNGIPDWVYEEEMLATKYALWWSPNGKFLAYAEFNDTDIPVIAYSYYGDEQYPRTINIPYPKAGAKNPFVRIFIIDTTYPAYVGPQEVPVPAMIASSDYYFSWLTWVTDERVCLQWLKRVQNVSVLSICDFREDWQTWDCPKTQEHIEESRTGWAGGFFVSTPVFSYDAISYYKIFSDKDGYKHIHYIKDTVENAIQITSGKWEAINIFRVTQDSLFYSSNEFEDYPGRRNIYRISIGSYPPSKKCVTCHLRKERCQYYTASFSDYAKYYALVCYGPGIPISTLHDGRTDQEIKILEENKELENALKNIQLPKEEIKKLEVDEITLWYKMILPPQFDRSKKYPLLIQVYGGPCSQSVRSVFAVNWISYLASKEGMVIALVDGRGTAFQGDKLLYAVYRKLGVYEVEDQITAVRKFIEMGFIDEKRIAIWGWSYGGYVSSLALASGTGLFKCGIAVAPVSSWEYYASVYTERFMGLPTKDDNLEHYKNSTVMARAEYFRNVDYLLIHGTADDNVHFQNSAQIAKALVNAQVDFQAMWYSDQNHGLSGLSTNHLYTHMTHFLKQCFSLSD

T2: human DR4 (Death Receptor 4), cell surface expressed on human tumor cell lines (human, UniProt O00220 24-468)
T2 construct: also called TNFRSF10A; TRAIL-R1
T2 sequence: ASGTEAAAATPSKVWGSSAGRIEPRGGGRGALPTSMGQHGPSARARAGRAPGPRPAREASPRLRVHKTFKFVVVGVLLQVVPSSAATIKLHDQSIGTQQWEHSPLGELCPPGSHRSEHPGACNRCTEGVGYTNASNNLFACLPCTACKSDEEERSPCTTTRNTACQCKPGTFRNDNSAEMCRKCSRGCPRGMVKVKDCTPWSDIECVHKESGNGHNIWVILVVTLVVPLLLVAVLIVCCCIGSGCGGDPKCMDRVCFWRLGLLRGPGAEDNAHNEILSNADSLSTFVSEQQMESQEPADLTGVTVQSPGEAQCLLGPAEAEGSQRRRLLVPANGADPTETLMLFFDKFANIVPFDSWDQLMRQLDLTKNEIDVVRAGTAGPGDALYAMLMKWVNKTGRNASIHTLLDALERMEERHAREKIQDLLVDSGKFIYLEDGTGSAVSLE

B1: BisG1-FAPα-FERL/DR4-FERR (bispecific antibody, human IgG1, kappa, lambda)
heavy 1: EVQLLESGGGLVQPGGSPRLSCEASGFTFSSYALSWVRQAPGKGLEWVSAISGSGGGRYYADSVKGRFTISRDNSKNTLFLQMNSLRAEDTAVYYCAKEGYSSSGTYWDHWGQGTLVTVSSASTKGPSVFPLAPSSKSTSGGTAALGCLVKDYFPEPVTVSWNSGALTSGVHTFPAVLQSSGLYSLSSVVTVPSSSLGTQTYICNVNHKPSNTKVDKRVEPKSCDKTHTCPPCPAPEFERGPSVFLFPPKPKDTLMISRTPEVTCVVVDVSHEDPEVKFNWYVDGVEVHNAKTKPREEQYNSTYRVVSVLTVLHQDWLNGKEYKCKVSNKALPAPIEKTISKAKGQPREPQVYTLPPSREEMTKNQVSLTCLVKGFYPSDIAVEWESNGQPENNYKTTPPVLDSDGSFLLYSKLTVDKSRWQQGNVFSCSVMHEALHNHYTQKSLSLSPG
light 1: AIQMTQSPSSVSASVGDRVTITCRASQGVSSWLAWYQQKPGRAPKLLIYVASTLQSGVPSRFSGSGSGTDFTLTINSLQPEDFATYYCQQANSFPPTFGQGTRLEMKRTVAAPSVFIFPPSDEQLKSGTASVVCLLNNFYPREAKVQWKVDNALQSGNSQESVTEQDSKDSTYSLSSTLTLSKADYEKHKVYACEVTHQGLSSPVTKSFNRGEC
heavy 2: QVQLQESGPGLVKPSGTLSLTCAVSGGSISSYSWWSWIRQPPGKGLEWIGELYHSGSTNYNPSLKSRVTISVDKSKNQFSLKLRSVTAADTAVYYCVRGVATIDYWGQGTLVTVSSASTKGPSVFPLAPSSKSTSGGTAALGCLVKDYFPEPVTVSWNSGALTSGVHTFPAVLQSSGLYSLSSVVTVPSSSLGTQTYICNVNHKPSNTKVDKRVEPKSCDKTHTCPPCPAPEFERGPSVFLFPPKPKDTLMISRTPEVTCVVVDVSHEDPEVKFNWYVDGVEVHNAKTKPREEQYNSTYRVVSVLTVLHQDWLNGKEYKCKVSNKALPAPIEKTISKAKGQPREPQVYTLPPSREEMTKNQVSLTCLVKGFYPSDIAVEWESNGQPENNYKTTPPVLDSDGSFFLYSRLTVDKSRWQQGNVFSCSVMHEALHNHYTQKSLSLSPG
light 2: QSALTQPPSASGSPGQSVTISCTGTSSDVGGYNFVSWYQQDPGKAPKLLIYEVTKRPSGVPDRFSGSKSGNTASLTVSGLQAEDEADYYCSSYAGSNNVMFGGGTKLTVLGQPKAAPSVTLFPPSSEELQANKATLVCLISDFYPGAVTVAWKADSSPVKAGVETTTPSKQSNNKYAASSYLSLTPEQWKSHRSYSCQVTHEGSTVEKTVAPTECS
notes: Human IgG1 bispecific made by controlled Fab-arm exchange of IgG1-FAPα-FERL and IgG1-DR4-FERR; monovalent for FAPα and for DR4; also called GEN1057
B2: IgG1-FAPα-FERL (antibody)
heavy: B1 heavy 1
light: B1 light 1
notes: Bivalent monoclonal IgG1 kappa
B3: BisG1-FAPα-FEAL/b12-FEAR (bispecific antibody, human IgG1, kappa)
heavy 1: B1 heavy 1 with R240G, D269A
light 1: B1 light 1
heavy 2: QVQLVQSGAEVKKPGASVKVSCQASGYRFSNFVIHWVRQAPGQRFEWMGWINPYNGNKEFSAKFQDRVTFTADTSANTAYMELRSLRSADTAVYYCARVGPYSWDDSPQDNYYMDVWGKGTTVIVSSASTKGPSVFPLAPSSKSTSGGTAALGCLVKDYFPEPVTVSWNSGALTSGVHTFPAVLQSSGLYSLSSVVTVPSSSLGTQTYICNVNHKPSNTKVDKRVEPKSCDKTHTCPPCPAPEFEGGPSVFLFPPKPKDTLMISRTPEVTCVVVAVSHEDPEVKFNWYVDGVEVHNAKTKPREEQYNSTYRVVSVLTVLHQDWLNGKEYKCKVSNKALPAPIEKTISKAKGQPREPQVYTLPPSREEMTKNQVSLTCLVKGFYPSDIAVEWESNGQPENNYKTTPPVLDSDGSFFLYSRLTVDKSRWQQGNVFSCSVMHEALHNHYTQKSLSLSPG
light 2: EIVLTQSPGTLSLSPGERATFSCRSSHSIRSRRVAWYQHKPGQAPRLVIHGVSNRASGISDRFSGSGSGTDFTLTITRVEPEDFALYYCQVYGASSYTFGQGTKLERKRTVAAPSVFIFPPSDEQLKSGTASVVCLLNNFYPREAKVQWKVDNALQSGNSQESVTEQDSKDSTYSLSSTLTLSKADYEKHKVYACEVTHQGLSSPVTKSFNRGEC
notes: Fab-arm exchange of IgG1-FAPα-FEAL and IgG1-b12-FEAR
B4: IgG1-DR4-FERR (antibody, V domains shown)
VH: QVQLQESGPGLVKPSGTLSLTCAVSGGSISSYSWWSWIRQPPGKGLEWIGELYHSGSTNYNPSLKSRVTISVDKSKNQFSLKLRSVTAADTAVYYCVRGVATIDYWGQGTLVTVSS
VL: QSALTQPPSASGSPGQSVTISCTGTSSDVGGYNFVSWYQQDPGKAPKLLIYEVTKRPSGVPDRFSGSKSGNTASLTVSGLQAEDEADYYCSSYAGSNNVMFGGGTKLTVLG
notes: Bivalent monoclonal IgG1 lambda
B5: BisG1-b12-FERL/DR4-FERR (bispecific antibody, human IgG1, kappa, lambda)
heavy 1: B3 heavy 2 with G246R, A275D, F415L, R419K
light 1: B3 light 2
heavy 2: B1 heavy 2
light 2: B1 light 2
notes: Fab-arm exchange of IgG1-b12-FERL and IgG1-DR4-FERR; also called bsIgG1-ctrl-FERLxDR4-FERR

Where a chain is given by its changes, count along the chain named.

The results in this text go back to patent publication US20250002610A1 (Genmab, published 2025).

What is called EC50 is the concentration needed to bring the measured effect to its halfway point.

One assay has as its target T1, cynomolgus monkey FAPα on Expi293F cells. In words: flow cytometry, Expi293F cells expressing cynomolgus monkey FAPα, n = 1. As for the experimental part: (§1) Binding of BisG1-FAPα-FERL/DR4-FERR, BisG1-FAPα-FEAL/b12-FEAR and IgG1-FAPα-FERL to FAPα of species commonly used for nonclinical toxicology studies was assessed by flow cytometry using Expi293F cells transiently expressing FAPα from different animal species. IgG1-b12 was included as negative control.
(§2) Expi293F cells expressing recombinant FAPα from various species (human, cynomolgus monkey, dog, pig, rat or mouse) were seeded (20,000 cells/well) in 96-Well round bottom plates (Greiner Bio-one, Cat #650101). Antibody dilutions were prepared using FACS buffer, consisting of PBS (Capricorn Scientific, Cat #PBS-10XA, diluted to 1×PBS in distilled water)+1% BSA (Roche, Cat #10735086001)+0.02% Sodium Azide (Bio-World, Cat #41920044-3). Plates were centrifuged, supernatant was removed, and cells were resuspended in 100 μL of antibody dilutions (concentration range 30-0.00017 μg/mL with three-fold serial dilutions using FACS buffer) of BisG1-FAPα-FERL/DR4-FERR, BisG1-FAPα-FEAL/b12-FEAR, IgG1-FAPα-FERL and IgG1-b12 and incubated for 30 min at 4° C. […] After 30 min incubation at 4° C., cells were washed with FACS buffer and resuspended in FACS buffer supplemented with TO-PRO-3 Iodide viability marker (Invitrogen, Cat #T3605, diluted 1:4,000). Antibody binding to viable cells (gMFI of PE on TO-PRO-3 negative cells) was analyzed by flow cytometry on a FACS Celesta and FACS_Diva software (first two experiments) or iQue® 3 and FlowJo software (last experiment). gMFI was determined and visualized using GraphPad Prism. Binding curves were analyzed using nonlinear regression analysis. The concentration (pg/mL) at which 50% of the maximal effect was observed (EC₅₀) was derived from the fitted curves.
Background: In flow cytometry, cells or beads pass a laser one at a time.
The molecule B1 returned an EC50 of 0.24 mg/L.
Turning to B2, the EC50 worked out at 0.03 mg/L.
Still for that read-out and setting: to B3 belongs 0.05 mg/L.

Another assay has the same target. Kind of assay: flow cytometry, Expi293F cells expressing cynomolgus monkey FAPα, average ± SEM. The protocol:
as §1, §2
As to B1, the response was half-maximal at 0.25 mg/L (EC50).
On to B2, for which the EC50 came to 0.1 mg/L.
On the same count and under the same terms, to B3 belongs 0.19 mg/L.

The target in another assay is T2, human DR4 (Death Receptor 4), cell …. In words: flow cytometry, DLD-1 cells, n = 1.
As for B4, a half-maximal effect (EC50) was put at 0.33 mg/L.
Still for that read-out and setting: to B1 belongs 0.75 mg/L; to B5, 0.85 mg/L.

Another assay shares this target. Kind of assay: flow cytometry, PANC-1 cells, average ± SEM.
For B4, the midpoint of the response, the EC50, lay at 0.49 mg/L.
B1: the midpoint of the response, the EC50, lay at 1.7 mg/L.
The molecule B5 gave an EC50 of 1.63 mg/L.
